Reference: patent publication US20060233785A1, “Immunointeractive molecules and uses thereof” (priority 2001, published 2006)
Changes are numbered by the printed parent chain.

What was measured:
[1] = Immunisation of mice with rHev b 6, serum ELISA; assay type: in vivo, BALB/c mice; conditions: eight mice; 20 μg intraperitoneally
Method: Monoclonal antibody production followed established protocols (Sutherland et al, 2002, supr; Goding, J. Monoclonal Antibodies: principles and practice 3rd ed. London: Academic Press. 492, 1996). Approval was obtained from the Monash University Animal Ethics Committee. Eight BALB/c mice were immunised with 20 μg rHev b 6 in 100 ill of PBS, intraperitoneally, three times at three weekly intervals. The first injection was given with Complete Freund's Adjuvant (100 μl; Sigma) and the two subsequent injections with Incomplete Freund's Adjuvant (100 μl; Sigma). Mice were finally boosted with 20 μg rHev b 6 in 200 μl PBS intraperitoneally 3 days before being sacrificed. Hybridomas were generated by fusing immune mouse spleen cells with murine myeloma cells (line X-63.Ag8.653; 17) and supernatants were screened for antibody to rHev b 6 and glove extract by performing a duplicate ELISA as described below. Positive hybridomas were expanded and cloned by limiting dilution.

[2] = test system: Hev b 6-specific mAb 1A5.4; assay: Western blotting of rHev b 6 forms with Hev b 6-specific mAb (Example 8); assay type: binding, mouse
Method: (§1) FIG. 6 is an image of sulphonation abolishing the IgE reactivity of rHev b 6. rHev b 6 (A) and sulphonated rHev b 6 (B) were resolved by 16% SDS-PAGE under non-reducing conditions. Gels were either stained with Coomassie Brilliant Blue (1) or transferred to nitrocellulose. Strips with transferred protein were incubated with the Hev b 6-specific mAb 1A5.4 and binding detected (2). Strips with transferred protein were also incubated with sera from two latex allergic, Hev b 6 sensitized subjects (3 and 4) and one non-latex-allergic, atopic subject (5). The presence or absence of IgE binding was then detected. […] Plates were coated with rHev b 6 and sulphonated rHev b 6 and the presence or absence of IgE-binding detected. As a positive control the Hev b 6-specific mAb 1A5 was used. NB indicates no binding of IgE was detected.
(§2) Four μg of rHev b 6 or sulphonated rHev b 6 were separated on 16% sodium dodecyl sulphate (SDS) polyacrylamide gels with 4% stacking gel. Electrophoresis was performed at 125V for 2 h on a Novex Xcell II Mini-Cell system (Novex, CA, USA). Proteins were visualized with Coomassie Brilliant Blue R-250 (Sigma). The separated proteins were electrophoretically transferred to nitro-cellulose membranes (BA 0.45μ, Schleicher and Schuell, Dassel, Germany) at 25V for 1 hr in transfer buffer. Membranes were blocked for 1 h at RT in 10% skim milk powder (SMP) in PBS, washed once in 0.05% Tween20/PBS and twice in PBS. Washed membranes were incubated for 1 hour at RT with either culture supernatant containing the Hev b 6-specific mAb 1A5.4, diluted 1 in 100 in 1% SMP/PBS or human serum, diluted 1 in 5 in 1% SMP/PBS. For mAb detection membranes were washed as above and incubated for 1 h at RT with goat HRP-conjugated anti-mouse Ig (Silenus), diluted 1 in 2000 in 1% SMP/PBS. For IgE detection, membranes were incubated for 1 h at RT with rabbit anti-human IgE (Dako, Denmark) at 1 in 1000 dilution, followed by swine anti-rabbit IgG-HRP conjugate (Promega) at 1 in 1000 dilution. After washing, the binding of 1A5.4 mAb and patient serum IgE to rHev b 6 was detected using hydrogen peroxide/diaminobenzidine solution.

latex-specific serum IgE = assay: ELISA detecting latex-specific serum IgE (Example 3); assay type: binding, human; conditions: ten latex-allergic patients; serum 1:10
Method: FIG. 3 is a graphical representation of an ELISA detecting latex-specific serum IgE. ELISA plates were coated with 10 μg/ml rHev b 6 and glove extract, blocked with skim milk powder and incubated with patient (P1-10) and non-allergic control serum (NA1-6) diluted 1:10. Antibody binding was detected by incubation with rabbit anti-human IgE, swine anti-rabbit immunoglobulines-HRP and o-phenylenediamine as substrate. Mean values+SD for triplicate wells are shown. The cut-off for positive was 2 SD above the mean OD of non-allergic subjects for rHev b 6 (dotted line) and glove extract (black line).
Hybridoma supernatants were tested for reactivity to rHev b 6, glove extract and Hev b 6 peptides by ELISA using an established protocol (Sutherland et al., 2002, supra). Patient serum samples were tested for latex-specific IgE using a similar ELISA protocol with rabbit anti-human IgE (1/1000) and swine anti-rabbit immunoglobulins-horseradish peroxidase conjugate (1/1000). Monoclonal antibody isotypes were determined using a mouse immunoglobulin isotyping ELISA kit (BD Biosciences, San Diego, Calif., USA).

IgE binding to rHev b 5 = assay: Non-specific inhibition assay: IgE binding to rHev b 5; set-up: species or system human; conditions: serum of latex-allergic, Hev b 5 positive subject (data not shown)
Method: To confirm the lack of IgE reactivity of mutant rHev b 6, inhibition ELISA were performed. In these assays, IgE binding to rHev b 6 was inhibited by preincubation of sera from latex allergic, Hev b 6 reactive subjects with either rHev b 6 or mutant rHev b 6 over a range of concentrations. To determine the level of non-specific inhibition inherent in such an assay, an initial non-specific inhibition assay was performed. The serum of a latex-allergic, Hev b 5 positive subject was incubated with rHev b 6 and mutant rHev b 6 and then the ability of IgE from this serum to bind rHev b 5 in an ELISA was measured. When this assay was undertaken, binding of IgE to rHev b5 was inhibited at a maximum of 20% by rHev b 6 and mutant rHev b 6 (data not shown).

[3] = test system: IgE from latex allergic subjects; assay: Western blotting of rHev b 6 forms with IgE of patient sera (Example 8); assay type: binding, human
Method: as §1, with “6 is an image of sulphonation abolishing the IgE reactivity of rHev b 6. rHev b 6 (A) and sulphonated rHev b 6 (B) were resolved by 16% SDS-PAGE under non-reducing conditions.” left out
as §2

[4] = reducing SDS-PAGE (data not shown)
[5] = non-reducing SDS-PAGE, sera of latex allergic subjects

B1: rHev b 6: recombinant Hev b 6 (prohevein) expressed in E. coli from pPROEX-HTa with 6-His tag (protein)
chain: EQCGRQAGGKLCPNNLCCSQWGWCGSTDEYCSPDHNCQSNCKDSGEGVGGGSASNVLATYHLYNSQDHGWDLNAASAYCSTWDANKPYSWRSKYGWTAFCGPVGAHGQSSCGKCLSVTNTGTGAKTTVRIVDQCSNGGLDLDVNVFRQLDTDGKGYERGHITVNYQFVDCGDSFNPLFSVMKSSVIN
modifications: left off: small tags and cut ends
notes: recombinant Hev b 6 (prohevein) expressed in E. coli from pPROEX-HTa with 6-His tag
- number of immunised mice whose serum reacted with glove extract by ELISA [1]: seven
- number of immunised mice with strong polyclonal immune response to rHev b 6 [1]: eight
- Hev b 6-specific mAb reactivity in Western blotting ([2]; non-reducing SDS-PAGE): reactive
- Hev b 6-specific mAb reactivity in Western blotting [2, 4]: reactive
- number of latex-allergic patients with serum IgE binding by ELISA (latex-specific serum IgE): eight
- maximum inhibition of IgE binding to rHev b5 (non-specific) (IgE binding to rHev b 5): 20%
- IgE reactivity in Western blotting [3, 5]: reactive
- IgE reactivity in Western blotting [3, 4]: reactive

B2: sulphonated rHev b 6: purified rHev b 6 sulphonated in sulphonation buffer to improve solubility (protein)
chain: B1 chain
modifications: left off: small tags and cut ends
- Hev b 6-specific mAb reactivity in Western blotting ([2]; non-reducing SDS-PAGE): reactive
- Hev b 6-specific mAb reactivity in Western blotting [2, 4]: reactive
- IgE reactivity in Western blotting [3, 5]: failed to react
- IgE reactivity in Western blotting [3, 4]: reactive

B3: mutant rHev b 6: rHev b 6 with cysteine to alanine substitution at amino acid 3 of the mature protein (protein)
chain: B1 chain with C3A
modifications: left off: small tags and cut ends
notes: rHev b 6 with cysteine to alanine substitution at amino acid 3 of the mature protein
- maximum inhibition of IgE binding to rHev b5 (non-specific) (IgE binding to rHev b 5): 20%
